Experimental data reported in the nanobody polyreactivity screen of Harvey et al. (2022).

Experiment: yeast display, Sf9 membrane polyspecificity reagent, FACS + sequencing; frameworks hold sequencing errors
How it was run: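 Galactose induction of a Saccharomyces cerevisiae BJ5465 synthetic nanobody display library ran 36–48 hours. The cells were then stained for 1 hour at 4 °C with 10% biotinylated, detergent-solubilized Sf9 membrane reagent, pulled down on streptavidin microbeads and FACS-sorted into low and high (top ~1%) gates on expression and reagent-binding fluorescence. Labels for polyreactivity follow the gate of origin.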
In the case of “QVQLVESGGGLVKAGGSLRLSCAASGLIFKLNAMGWYRQSPGKERELVAAIRASTGSTYYADSVKGRFTISRDNAKNTVYLQMNSLKPEDTAVYYCAVSLRWYFFLMDYWGQGTQVTVSS”, the “polyreactivity (PSR sort gate)” value is reported as “high polyreactivity”. For “QVQLVESGGGLVKAGGSLRLSCAASGNIFTSNAMGWYRQAPGKERELVAAITSGGSTYYADSVKGRFTISRDNAKNTVYLQMNSLKPEDTAVYYCATLPRPHLRPYYYWGQGTQVTVSS”, the “polyreactivity (PSR sort gate)” value was “high polyreactivity”. In the case of “QVQLVESGGGLVKAGGSLRLSCAASGRIFKYNAMGWYRQAPGKERELVAVITSGGSTYYADSVKGRFTISRDNAKNTVYLQMNSLKPEDTAVYYWGQGTQVTVSS”, the “polyreactivity (PSR sort gate)” value is reported as “low polyreactivity”. In the case of “QVQLVESGGGLVKAGGSLRLSCAASGRNFSQNVMGWYRQAPGKERELVADISRGGSTNYADSVKGRFTISRDNAKNSVFLQMNSLKPEDTAVYYCAARLFWYYYHPYYYWGQGTQVTVSS”, the “polyreactivity (PSR sort gate)” value is reported as “high polyreactivity”. For “QVQLVESGGGLVKAGGSLRLSCAASGRTFGNYAMGWYRQAPGKERELVASMNTGGSTSYADSVKGRFTISRDNAKNTVYLQMNSLKPEDTAVYYCARSFFWYRLHDYWGQGTQVTVSS”, the “polyreactivity (PSR sort gate)” value was “low polyreactivity”. With “QVQLVESGGGLVKAGGSLRLSCAASGRTFLRNAMGWYRQAPGKERELVATITRGGSTYYADSVKGRFTISRDNAKYTCYLEIISLIPEDTAVYYCAKDITGGFRRPDYGYLGQGTQVTVSS” the “polyreactivity (PSR sort gate)” value was “low polyreactivity”. In the case of “QVQLVESGGGLVKAGGSLRLSCAASGRTFQIYAMGWYRQAPGKESELVAAISRTGASTYYADSVKGRFTISRDKAKNTLFLQLNSLKPEDTAVYYCAANGHCRVYFGGCHWGQGTQVTVSS”, the “polyreactivity (PSR sort gate)” value is reported as “high polyreactivity”. For “QVQLVESGGGLVKAGGSLRLSCAASGRTFRFYAMGWYRQAPGKEREFVAAISRSVGSTYYADSVKGRFTISRDNAKNTVYLQMNSLKPEDTAVYYCNADYRSRYVEYDYWGQGTQVTVSS”, the “polyreactivity (PSR sort gate)” value was “high polyreactivity”. In the case of “QVQLVESGGGLVKAGGSLRLSCAASGRTLRSYDMGWYRQAPGKEREVVAAITRTGGDTYYADSVKGRFTISRDNAKNTVYLQMNRLKPDDTAVYYCAAQRYRGYDYWGQGTQVTVSS”, the “polyreactivity (PSR sort gate)” value is reported as “high polyreactivity”. In the case of “QVQLVESGGGLVKAGGSLRLSCAASGSIFYSYAMGWYRQAPGKERELVAAITDSGDSTYYADSVKGRFTISRDYAKNTVYLQMNSLKPEDTAVYYCAAGFYPYYYWGLGTQVTVSS”, the “polyreactivity (PSR sort gate)” value is reported as “low polyreactivity”. For “QVQLVESGGGLVKAGGSLRLSCAASGSTFAKYAMGWYRQAPGKERELDASIRLSGGSTYYADSVKGRFTISRDNAKNNVYLQMNSLKPEDTAVYYCNKQFATFYYGFDYYYWGQGTQVTVSS”, the “polyreactivity (PSR sort gate)” value was “low polyreactivity”. In the case of “QVQLVESGGGLVKAGGSLRLSCAASGSTFVGYAMGWYRQAPGKERELVADITWSGTNTYYADSVKGRFTISRDNAKNTVYLQMNSLKPEDTAVYYCAADIARSVRFYYWGQGTQVTVSS”, the “polyreactivity (PSR sort gate)” value is reported as “low polyreactivity”. In the case of “QVQLVESGGGLVKAGGSLRLSCAASGSTNDRYAMGLYRQAPGKEREFVAAITKRGGSTYYADSVKGRFTISRDNAKITVYLQMNSLKPEDTAVYYCGARYGRGSAYTEYEYWGQGTQVTVSS”, the “polyreactivity (PSR sort gate)” value is reported as “high polyreactivity”. With “QVQLVESGGGLVKAGGSLRLSCADSGRTFYINAMGWYRQAPGKERELVAAISNYGSSTYYADTVKGRFTISRDNAKYTVYLLMISLKPVDSAVYYCAASYGYGGDYDYWGQGTQGTVSS” the “polyreactivity (PSR sort gate)” value was “high polyreactivity”. For “QVQLVESGGGLVKAGGSLRLSCGASGSIIVRYAMGWYRQAPGKERELVASISKRGGSTYYADSVKGRFTISRDNAKNTVYLQMNSLKPEDTEVYYCAAVCYYLVKFDYWGLGTQVTVSS”, the “polyreactivity (PSR sort gate)” value was “high polyreactivity”. With “QVQLVESGGGLVKAGGSLRLSSAATGSTFWEYVMGWYRQPPGKERELVAAITTNDDSTYYADSVKGRFTISRDNAKKTVYLQMNSLKPEDTAVYYCNADQITGQFDYWGQGTQVTVSS” the “polyreactivity (PSR sort gate)” value was “low polyreactivity”. With “QVQLVESGGGLVKAGVSLRLSCAASGSIFVGYAMGWYRQAPGKERELVAAIRSGGSTKYADSVKGRFTISRDNAKNTVYLQMNSLKPEDTAVYYCNVEVHPYYWVDNFHRYPVLHNYWGQGTQVTVSS” the “polyreactivity (PSR sort gate)” value was “low polyreactivity”. With “QVQLVESGGGLVKAGVSLRLSSDASGRTFALYAMGWYRQAPGKERELVASIRGGGGTNYADSVKGRFTISRDNAKNTVYLQMNSLKPEDTAVYYCAARGYGYRGYYYWGQGTQVTVSS” the “polyreactivity (PSR sort gate)” value was “high polyreactivity”. For “QVQLVESGGGLVLAGGRLRLSCAASGRNFYGYAMGWYRQAPGKERELVAAISYGGGSTYYADSVKGRFTISRDNAKKTVYLQMNSLKPEDTAVYYCNDFSAYMGQYGYWGQGTQVTVSS”, the “polyreactivity (PSR sort gate)” value was “high polyreactivity”. With “QVQLVESGGGLVLAGGRLRLSCAASGRTFFDYTMGWYSQAPGKEREFVARISSRTGRTYYADSVKGRFTISRDNEKNTDDLQMNSLKPDDTAVYYCNAVSQYSAFDYWGQGTQVTVSS” the “polyreactivity (PSR sort gate)” value was “high polyreactivity”. With “QVQLVESGGGLVLAGGRLRLSCADYRSIFAGYAMGWYRQAPGKERELVAAISSSGGRTYYADSVKGRFTISRDNAKNTVYLQMNSLKPEDTAVYYCAVSTYEEEYWGQGTQVTVSS” the “polyreactivity (PSR sort gate)” value was “high polyreactivity”. For “QVQLVESGGGLVLAGGSLLLSCAAAGSTFSQNAMGWYRQAPGKERELVAAITSGGITYYADSVKGRFTISRDNAKNSVYLQMNSLKPEDTAVYYCNADPIVSPYRLWTVTYYYWGQGTQVTVSS”, the “polyreactivity (PSR sort gate)” value was “low polyreactivity”. In the case of “QVQLVESGGGLVLAGGSLRLRCAASGSNFYVNAMGWYRQAPWKEMELVAAISRRGGSTYYADSVKGRFTISRDNAKNTVYLQMNSLKPEDTAVYYCNKAMRGQAPSGPEYDYWGQGTQVTVSS”, the “polyreactivity (PSR sort gate)” value is reported as “high polyreactivity”. In the case of “QVQLVESGGGLVLAGGSLRLSCAASGFTFLDNAMGWYRQAPGKERELVAAISGIGGSTSYADSVKGRFTISRDNAKNTVYLQMNSLKPEDTAVYYCATRLYKWSFTPKFEMDHWGQGTQVTVSS”, the “polyreactivity (PSR sort gate)” value is reported as “low polyreactivity”. In the case of “QVQLVESGGGLVLAGGSLRLSCAASGITFKWYAMGWYRQAPGKERELVAAITSGGGTNYADSVKGRFTISRDNAKNTVYLQMNSLKPEDTAVYYCAARFYQLPWRRYDYWGQGTQVTVSS”, the “polyreactivity (PSR sort gate)” value is reported as “high polyreactivity”. In the case of “QVQLVESGGGLVLAGGSLRLSCAASGNTFRYYAMGWYRQAPGKERELVADITIGGSTYYADSVKGRFTISRDNAKNTVYLQMNSLKPEDTAVYYCATDPDWGYYDAPYGYWGQGTQVTVSS”, the “polyreactivity (PSR sort gate)” value is reported as “low polyreactivity”. With “QVQLVESGGGLVLAGGSLRLSCAASGRIFTSARGWYRQAPGKERELVAAISSSGGRTYYADSVKGRFTISRDNAKNTVYLQMNSLKPEDTAVYYCNTRPGSVFRAGGDYWGQGTQVTVSS” the “polyreactivity (PSR sort gate)” value was “high polyreactivity”. For “QVQLVESGGGLVLAGGSLRLSCAASGSTFFTNVMGWNRQAPGKERELVASITSGGSTNYADSVKGRFTITRDNAQNTVYLQMNSLKPEDTAVYYCAAVTRTITIYELDSWGQGTQVTVSS”, the “polyreactivity (PSR sort gate)” value was “low polyreactivity”. With “QVQLVESGGGLVLAGGSLSLTCAASGRTCWYYTMGWYRHAPGKARELVAAISSGGRTNYADSVKGRFTISRDNATNTVFLQMNSLKPEDTAVYYCATSRYYKYVERDYWGQGTQVTVSS” the “polyreactivity (PSR sort gate)” value was “high polyreactivity”. With “QVQLVESGGGLVLAGRSLRLICAASGSIFVYNAMGWYRQAPGKERELVAAISWSGGRTYYADSVKGRFTISRDNAKNTVYLQMNSLKPEDTAVYYCAALYTLRGYYYGTEYDYWGQGTQVTVSS” the “polyreactivity (PSR sort gate)” value was “high polyreactivity”. With “QVQLVESGGGLVPAGGSLLLSCAASGRTIYSYGMGWYRQAPGKERELVASISSSTGSTYYADSVKGRFTISRDNAKNTVYLQMNSLKPEDTAVYYCAKRYSWTRRYDYWGQGTQVTVSS” the “polyreactivity (PSR sort gate)” value was “high polyreactivity”. In the case of “QVQLVESGGGLVPAGGSLPLSCAASGSTFSGHTMGWYRQAPGQDWELVADINWSSGSTYYADSVKGRFTISRDNAKNNVYLQMHSLKPEDTALLYCAAVEPFSDFDYWGQGTQVTLSS”, the “polyreactivity (PSR sort gate)” value is reported as “low polyreactivity”. In the case of “QVQLVESGGGLVPAGGSLRLSCAASGFIFQWYAMGWYRQAPGKERELVAAISSSGGSTYYADSVKGRFTISRDNAKNTVYLQMNSLKPEDTAVYYCAAVWASYPYRGVDYWGQGTQVTVSS”, the “polyreactivity (PSR sort gate)” value is reported as “high polyreactivity”. In the case of “QVQLVESGGGLVPAGGSLRLSCAASGRIFWSNAMGWYRQAPGKERELVAAITWRGGSTYADSVKGRFTISRDNAKNTVYLQMNSLKPEDTAVFYCAASPSGWRYDYWGQGTQVTVSS”, the “polyreactivity (PSR sort gate)” value is reported as “high polyreactivity”. For “QVQLVESGGGLVPAGGSLRLSCAASGRIITINAIGWYRKAPGKERELVAAISNSGGRTYADSVKGRFTISRDNAKNTVYLQMNSLKPEDTAVYYCAKRYRFHFWGQGTQVTVSS”, the “polyreactivity (PSR sort gate)” value was “low polyreactivity”. In the case of “QVQLVESGGGLVPAGGSLRLSCAASGRTFAGNAMGWYRPAPGTERELVAVISRGGSTYYADSVKGRFTISRDNAKNTVYLQMNSLKPEDTAVYYCAARLRTTSVRGRYDYWGQGTQVTVSS”, the “polyreactivity (PSR sort gate)” value is reported as “high polyreactivity”. With “QVQLVESGGGLVPAGGSLRLSCAASGSIFKINAMGWYRQAPGKERELVATITWSTGTTYYADSVKGRFTISRDNAKNTVYLQMNSLKPEDTAVYYCATDGDSTKLDYWGQGTQVTVSS” the “polyreactivity (PSR sort gate)” value was “low polyreactivity”. In the case of “QVQLVESGGGLVPAGGSLRLSCAASGSIFVGYAMGWYRQAPGKERELVADITVGGGSTFYADSVKGRFTISRDNAKNTVYLQMTSLKPEDTAVYYCAKYAGVYEYDYWGQGTQVTVSS”, the “polyreactivity (PSR sort gate)” value is reported as “low polyreactivity”. In the case of “QVQLVESGGGLVPAGGSLRLSCAASGSTFVGNAMGWYRQAPGKERELVAAISSGGSTNYADSVKGRFTISRDNAKNTVYLQMNSLKPEDTAVYYCNAVYFYWLYGFSYFATGITYDYWGQGTQVTVSS”, the “polyreactivity (PSR sort gate)” value is reported as “high polyreactivity”. For “QVQLVESGGGLVPAGGSLRLSCAASGSTFVRYVMGWYRQAPGKERELVAAISRRGGSTYYADSVKGRCTISRDIAKNTVYLQMNSLKPEDTAVYYCADSRGTRTTGYSSYDRFGYWGQGTQVTVSS”, the “polyreactivity (PSR sort gate)” value was “high polyreactivity”. In the case of “QVQLVESGGGLVPAGGSLRLSCAASGSTGFNAMGWYRQAPGKERELVAAINYSDGSTYYADSVKGRFTISRDNAKNTVYLQMNSLKPEDTAVYYCNAGSSKDDSYYSYGYWGQGTQVTVSS”, the “polyreactivity (PSR sort gate)” value is reported as “low polyreactivity”. For “QVQLVESGGGLVPAGGSLRLSCPAGGFIFGSNVMGWYRQAPGKEREFVAAITYGGVSTYYADSVKGRFTISRDNAKNTVYLQMNSLKPEDTAVYYCNTDRGKRLGKQASSKRYDYWGQGTQVTVSS”, the “polyreactivity (PSR sort gate)” value was “high polyreactivity”. For “QVQLVESGGGLVQAAGSLRISCAASGLIFGWNAMGWYRQAPGKERELVAAITSGGSTYYADSVKGRFTISRDNAKNTVYLQMNSLKPEDTAVYYCAAVYVLGKTGRVYGKYGYWGQGTQVTVSS”, the “polyreactivity (PSR sort gate)” value was “high polyreactivity”.
